In assay [1] the target is T1, human IL-5 with his-tag (rhIL-5-his) (human, UniProt P05113 20-134).
T1 sequence: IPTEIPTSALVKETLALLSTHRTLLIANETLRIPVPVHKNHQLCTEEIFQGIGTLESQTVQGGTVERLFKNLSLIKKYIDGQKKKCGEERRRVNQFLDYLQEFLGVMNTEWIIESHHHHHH
Nature of the assay: cell-based or functional assay.

For assay [2], the target named is T1, human IL-5 with his-tag (rhIL-5-his). Nature of the assay: cell-based or functional assay. The source holds these as a separate data set.
The target is the same in assay [3]. Nature of the assay: Biacore T200, antibody captured on protein A chip, antigen in flow, 1:1 Langmuir. Here is the method:
The affinity of the humanized IL-5 antibody to be tested with human IL-5 was measured by Biacore T200 (GE) instrument.
(§1) The protein A biosensor chip was used to affinity capture of the molecules to be tested, and then the antigen (prepared in Example 1) flowed through the surface of the chip, and the reaction signal was detected in real time with the Biacore T200 instrument to obtain the binding and dissociation curves. After the dissociation of each experimental cycle was completed, the biosensor chip was washed and regenerated with glycine-hydrochloric acid regeneration solution (pH 1.5). BIA evaluation version 4.1 GE software was used to fit the data against (1:1) Langmuir model, and the affinity value was obtained and shown in Table 14.
In general terms: In SPR one partner is held on a chip, and binding of the other changes the refractive index at the surface.

The target is the same in assay [4]. As to the kind of experiment: FACS blocking: biotin-IL-5 (100 ng/ml) binding to IL-5Rα/β-CHOS cells, antibody diluted. Here is the method:
Particular method was as follows: CD-CHO comprising […] and […] zeozin was used to culture CHO-S-IL-5Rα and β. During cell culture, the concentration should not exceed 3×10⁶ cells/ml. IL-5Rα/β-CHOS cells in good condition were centrifuged (at 1000 rpm, 5 min), and washed once with 10% FBS in PBS, and the cells were counted, the cell concentration was adjusted to 4×10⁶ cells/ml, and 25 μl was taken out and added into a round-bottom 96-well plate. The antibody to be tested was diluted with PBS solution comprising 10% FBS. The initial concentration was 200 μg/ml, and diluted at 1:10 for 8 gradient dilutions. 25 μl of 100 ng/ml IL-5 labeled by a biotin labeling kit (Tojin Chemical, LK03) was added, and fully mixed with 50 μl of diluted antibody at each concentration, and added into 96-well plate that has been added with cells, and incubated at 4° C. for 1 hour. After the incubation, the sample was centrifuged at 4° C. (400 g, 5 min), and the supernatant was removed, the plated was washed with 200 μl of pre-cooled PBS by centrifugation, repeated for twice; PE-Avidin secondary antibody diluted at 1:1333 was added and incubated in the dark at 4° C. for 40 min, centrifuged at 4° C.

The next assay addresses IL2 (R&D, 202-IL-010/CF) (UniProt P60568 21-153). Nature of the assay: Fortebio biolayer interferometry: antibody captured on Protein A biosensor, 40 nM cytokine injected; signal relative to IL-5 = 100%. Here is the method: (§2) IL-5 was one of Th2 cytokines.
(§3) In particular: Protein A Biosensor (PALL Fortebio, 18-5010) was used to capture the antibody, the capture signal was recorded, and then 40 nM each cytokine was injected, the new binding signal was recorded. Finally, the binding signal with IL-5 was defined as 100%.
In general terms: Biolayer interferometry detects binding as a change in optical thickness at a sensor tip.

A further assay deals with T2, IL4 (R&D, 204-IL-050/CF) (UniProt P05112 25-153).
T2 sequence (looked up): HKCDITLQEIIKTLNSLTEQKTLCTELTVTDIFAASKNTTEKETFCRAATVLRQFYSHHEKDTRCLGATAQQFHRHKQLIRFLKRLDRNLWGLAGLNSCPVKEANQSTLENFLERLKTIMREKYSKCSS
The description is as above. Here is the method:
as §2, §3

A further assay addresses T3, IFNgamma (UniProt P01579 24-166, limits assumed).
T3 sequence (looked up): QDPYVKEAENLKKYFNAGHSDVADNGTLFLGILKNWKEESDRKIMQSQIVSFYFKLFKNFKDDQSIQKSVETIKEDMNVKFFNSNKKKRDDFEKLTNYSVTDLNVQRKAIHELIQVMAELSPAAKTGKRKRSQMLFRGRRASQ
The assay is described as above. Here is the method: as §2, §3

Assay [5] has as its target IL6 (R&D, 7270-IL-025/CF) (UniProt P05231 30-212, limits assumed). Described as above. Here is the method:
as §2, §3

The next assay concerns the target IL9 (R&D, 209-IL-010/CF) (UniProt P15248 19-144). The assay is described as above. The protocol:
as §2, §3

The target of assay [6] is IL10 (R&D, 217-IL-025/CF) (UniProt P22301 19-178). The assay is described as above. Here is the method:
as §2, §3

Assay [7] deals with IL13 (R&D, 213-ILB-025/CF) (UniProt P35225 35-146). The assay is described as above. The protocol:
as §2, §3

In assay [8] the target is T4, IL25 (R&D, 8134-IL-025/CF) (UniProt Q9H293 33-177).
T4 sequence (looked up): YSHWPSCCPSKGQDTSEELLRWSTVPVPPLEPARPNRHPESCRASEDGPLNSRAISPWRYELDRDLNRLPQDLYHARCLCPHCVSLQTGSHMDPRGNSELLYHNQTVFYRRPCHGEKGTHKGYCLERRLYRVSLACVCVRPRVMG
Described as above. Here is the method:
as §2, §3

The target in assay [9] is T5, IL31 (R&D, 2824-IL-010/CF) (UniProt Q6EBC2 24-164).
T5 sequence (looked up): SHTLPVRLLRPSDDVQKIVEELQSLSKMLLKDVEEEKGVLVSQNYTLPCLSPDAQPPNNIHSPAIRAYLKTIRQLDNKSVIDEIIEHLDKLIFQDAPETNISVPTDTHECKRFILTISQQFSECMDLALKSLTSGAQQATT
The description is as above. Here is the method:
as §2, §3

A further assay concerns the target T6, IL3 (203-IL-050/CF) (UniProt P08700 20-152).
T6 sequence (looked up): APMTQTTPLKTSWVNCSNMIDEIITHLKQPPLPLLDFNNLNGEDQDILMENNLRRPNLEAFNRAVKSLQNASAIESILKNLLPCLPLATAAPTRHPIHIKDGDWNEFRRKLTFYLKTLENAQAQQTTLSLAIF
The description is as above. The protocol:
as §2, §3

For assay [10], the target named is GMCSF (R&D, 215-GM-010/CF) (UniProt P04141 18-144). The assay is described as above. The protocol:
as §2, §3

For assay [11], the target named is T1, human IL-5 with his-tag (rhIL-5-his). Nature of the assay: Biacore. The protocol:
(§4) The affinity of the murine IL-5 antibody to be tested with human IL-5 was measured by Biacore T200 (GE) instrument.
as §1, with “(recombinant human and cyno IL-5 prepared” for “(prepared”, “13.” for “14.”

For assay [12] the target is unchanged. As to the kind of experiment: Biacore T200, antibody captured on protein A chip, antigen in flow, 1:1 Langmuir. Here is the method:
as §4
as §1, with “(recombinant human and cyno IL-5 prepared” for “(prepared”, “13.” for “14.”
The source holds these as a separate data set.

The target in the next assay is T7, cyno IL-5 with his-tag (cyno (paragraph 156 says rhesus), UniProt P48093 20-134 (rhesus entry)).
T7 construct: also called rhesus IL-5 with His-tag; monkey IL-5
T7 sequence: T1 sequence with T7A, D80G
Described as above. The protocol:
as §4
as §1, with “(recombinant human and cyno IL-5 prepared” for “(prepared”, “13.” for “14.”

The target of assay [13] is T1, human IL-5 with his-tag (rhIL-5-his). Nature of the assay: competition ELISA: IL-5 coated, biotin-IL-5Rα (10 µg/ml) as competitor, antibody diluted. Here is the method:
To identify the ability of IL-5 antibody to block IL-5 from binding to the extracellular region of recombinantly expressed IL-5α receptor protein, IL-5 (5 μg/ml in PBS) was coated on an ELISA plate and incubated at 37° C. for 1 hour; the liquid was removed, 200 μl/well of 5% skimmed milk blocking solution diluted with PBS was added, and incubated for 2.5 hours in a 37° C. incubator for blocking. After blocking, the blocking solution was removed and the plate was washed with PBST buffer (pH 7.4 PBS comprising 0.05% Tween-20) for 5 times; 25 μl of 10 μg/ml IL-5Rα (in 1% BSA) labeled by a biotin labeling kit (Tojin Chemical, LK03) was added, and then 25 μl of gradient-diluted antibody was added (the antibody competed with IL-5Rα for the binding with IL-5) and incubated at 37° C. for 1 hour. After the incubation, the reaction solution in the microtiter plate was removed, the plate was washed for 5 times with PBST, added with 50 μl/well of Streptavidin-Peroxidase Polymer (Sigma, 52438-250UG) diluted with sample dilution solution at 1:600 and incubated for 1 hour at 37° C.
A general note: ELISA stands for enzyme-linked immunosorbent assay.

Residue numbers refer to the chain shown, from its start. In names and notes the source's numbering stands.

As a reminder, the Kd is the free concentration of one partner at which half of the binding sites on the other are occupied at equilibrium, for simple one-to-one binding. The term IC50 denotes the midpoint of a concentration-inhibition curve. The low end stands for greater potency in that assay, the high end for weaker potency in that assay.

Chain of IL13 (R&D, 213-ILB-025/CF) (P35225 35-146 limits assumed): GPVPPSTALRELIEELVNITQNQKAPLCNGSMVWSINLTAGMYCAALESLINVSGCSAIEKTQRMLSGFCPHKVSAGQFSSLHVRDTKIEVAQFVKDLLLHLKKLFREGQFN
Chain of IL9 (R&D, 209-IL-010/CF) (P15248 19-144 limits assumed): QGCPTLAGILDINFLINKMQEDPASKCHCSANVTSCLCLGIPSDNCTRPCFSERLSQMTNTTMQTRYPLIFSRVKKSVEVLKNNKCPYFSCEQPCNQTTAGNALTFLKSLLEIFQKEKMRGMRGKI
Chain of IL2 (R&D, 202-IL-010/CF) (P60568 21-153 limits assumed): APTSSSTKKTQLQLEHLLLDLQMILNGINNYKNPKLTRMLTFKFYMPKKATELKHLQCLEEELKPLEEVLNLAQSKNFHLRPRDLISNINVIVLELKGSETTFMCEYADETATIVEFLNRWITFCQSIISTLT
Chain of GMCSF (R&D, 215-GM-010/CF) (P04141 18-144 limits assumed): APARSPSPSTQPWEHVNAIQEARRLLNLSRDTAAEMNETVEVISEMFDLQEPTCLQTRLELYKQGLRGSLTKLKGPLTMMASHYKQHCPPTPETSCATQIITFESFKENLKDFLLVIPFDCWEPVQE
Chain of IL10 (R&D, 217-IL-025/CF) (P22301 19-178 limits assumed): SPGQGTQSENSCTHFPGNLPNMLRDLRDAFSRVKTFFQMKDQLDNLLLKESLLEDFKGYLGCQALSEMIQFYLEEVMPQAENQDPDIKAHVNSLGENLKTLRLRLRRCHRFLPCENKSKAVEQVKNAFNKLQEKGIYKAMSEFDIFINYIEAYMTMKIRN

B1: h1706-009 (antibody, human IgG1, kappa, V domains shown)
VH: EVQLVESGGGLVQPGGSLRLSCAASGFTFSHYYMAWVRQAPGKGLEWVSSINYEGNSAYYGDSVKGRFTISRDNSKNTLYLQMNSLRAEDTAVYYCATETLRESLDYWGQGTMVTVSS
VL: DIQMTQSPSSVSASVGDRVTITCRASQDIGNYLSWYQQKPGKSPKLMIYSASNLEVGVPSRFSGSGSGTDYTLTISSLQPEDFATYFCLQHKQFPRTFGGGTKVEIKR
In the case of B1, the “IC50 of inhibition of IL-5 induced TF1 cell proliferation” value in [1] is 0.25 nM. Further, the “IC50 of blocking IL-5 induced eosinophil adhesion” value in [2] amounted to 0.0043 mg/L. Moreover, the affinity in [3], expressed as Kd, was 0.0545 nM. In assay [4], this molecule came in with an IC50 of 0.0247 mg/L. Further, the binding result was “no binding (tested: 40 nM)” in the assay with IL2 (R&D, 202-IL-010/CF); “no binding (tested: 40 nM)” with IL4 (R&D, 204-IL-050/CF); “no binding (tested: 40 nM)” in the assay with IFNgamma; “no binding (tested: 40 nM)” in assay [5]; “no binding (tested: 40 nM)” in the assay with IL9 (R&D, 209-IL-010/CF); “no binding (tested: 40 nM)” in assay [6]. The binding result (in [7]; in assay [8]; in assay [9]; in the assay with IL3 (203-IL-050/CF); in [10]) was “no binding (tested: 40 nM)” throughout.

B2: h1705-008 (antibody, human IgG1, kappa, V domains shown)
VH: B1 VH with S49T, N52S, N56D, S57I, A58T, V93T, T98S, E99Q, L105F, M113L
VL: B1 VL with G30A, M47L, S50G, A51T, G66R, Y71F, F87Y, H91D, Q93E
notes: IgG1 with M252Y/S254T/T256E, kappa
As to B2, the “IC50 of inhibition of IL-5 induced TF1 cell proliferation” value in assay [1] worked out at 0.2 nM. In [2], the “IC50 of blocking IL-5 induced eosinophil adhesion” value worked out at 0.00485 mg/L. The Kd in [3] is 0.0342 nM. The molecule further yielded an IC50 in assay [4] of 0.0145 mg/L. Moreover, the binding result is on record as “no binding (tested: 40 nM)” with IL2 (R&D, 202-IL-010/CF); “no binding (tested: 40 nM)” with IL4 (R&D, 204-IL-050/CF); “no binding (tested: 40 nM)” with IFNgamma; “no binding (tested: 40 nM)” in [5]; “no binding (tested: 40 nM)” with IL9 (R&D, 209-IL-010/CF); “no binding (tested: 40 nM)” in [6]. Moreover, the binding result (in assay [7]; in assay [8]; in assay [9]; with IL3 (203-IL-050/CF); in assay [10]) was “no binding (tested: 40 nM)” throughout.

B3: mAb1705 (antibody, V domains shown)
VH: EVQLVESGGGLVQPGRSLKLSCTASGFTFSHYYMAWVRQAPKKGLEWVTSISYEGDITYYGDSVKGRFTISRDNAKSTLYLQMNSLRSEDTATYYCASQTLRESFDYWGQGVMVTVSS
VL: DIQMTQSPSSMSVSLGDRVTITCRASQDIANYLSWYQQKIARSPKLVIYGTSNLEVGVPSRFSGSRSGSDYSLTINTLESEDTGIYFCLQDKEFPRTFGGGTRLELK
notes: Murine hybridoma antibody
B3: the Kd in assay [11] stood at 0.0727 nM; in [12] it was 0.0727 nM; in the assay with cyno IL-5 with his-tag it was 0.205 nM. In assay [13], this molecule had an IC50 of 0.42 mg/L.

The record behind these values is patent US20220144937A1 (JIANGSU HENGRUI MEDICINE, published 2022).
